Measurements taken from patent US9494574B2, “T-cell death-inducing epitopes” (AbGenomics Cooperatief U.A., priority 2004, dated 2016).
“Also recorded” adds a separate entry of the source.

B1: m152-15A7: mouse monoclonal antibody from hybridoma raised against Concanovalin A-activated human T-cells; induces T-cell apoptosis (antibody, V domains shown)
VL: DILMTQTPLSLPVSLGDQASISCRSSQSIVHNDGNTYFEWYLQKPGQSPKLLIYKVSNRFSGVPDRFSGSGSGTHFTLNISRVEAEDLGIYYCFQGSYVPLTFGAGTKLELK
VH: DVQLVESGGGLVQPGGSRKLSCAASGFTFSSFGMHWVRQAPEKGLEWVAYINGGSSTIFYANAVKGRFTISRDNPKNTLFLQMTILRSEDTAIYYCGRYASYGGGAMDYWGQGTSVTVSS
B2: m166-43B6: mouse monoclonal antibody from hybridoma raised against Concanovalin A-activated human T-cells; induces T-cell apoptosis (antibody, V domains shown)
VL: ENVLTQSPAIMSASPGEKVTMTCRASSTVNSTYLHWFQQKSGASPKLWIYGSSNLASGVPARFSGSGSGTSYSLTISSVEAEDAATYYCQQYSGYPLTFGAGTTLELK
VH: EVQLQQSGPDLVKPGALVKISCKASGYSFTAYYIHWVKQSHGKSLEWIGRVNPNTGGTSYNPKFKGKAILNVDKSSSTAYMELRSLTSEDSAVYYCARSGSPYYRYDDWGQGTTLTVSS
B3: m128-9F9: mouse monoclonal antibody from hybridoma raised against Concanovalin A-activated human T-cells; induces T-cell apoptosis (antibody, V domains shown)
VL: DVLMTQTPLSLPVSLGDQASISCRSSQSIVNSNGNTYLEWYLQKPGQSPKLLIYKVSNRFSGVPDRFSGSGSGTDFTLKISRVEAEDLGVYYCFQGSHVPWTFGGGTKLEIK
VH: EVQLVETGGGLVQPKGSLKLSCAASGFTFNTNAMNWVRQAPGKGLEWVARIRSKSNNYATYYADSVKDRFTISRDDTQSMIYLQMNNLKTEDTGMYYCVRGGSYWYFDVWGAGTTVTVSS

What was measured:
[1] = tested on: in vitro activated human T-cells; test: Induction of death of activated human T-cells by monoclonal antibodies (annexin V staining, FACS, CD3-positive gated); format: cell-based; conditions: for Percentage of apoptotic T-cells: Day 7, in vitro activated human T-cells, hybridoma culture supernatant, 6 hours, annexin V positive among CD3-positive cells; for percentage of in vitro activated T-cells undergoing apoptosis compared to that of untreated cells: annexin V staining and FACS analysis; for induction of death (apoptosis) of in vitro activated human T-cells: result in words
Procedure: Activated T cells (see above) were resuspended to a final concentration of 5×10^5 cells/ml in RPMI medium containing 5 ng/ml of IL-2, and treated with control Ig, m128-9F9, m152-15A7, or m166-43B6.
(§1) It is well known that T-cell death-inducing antibodies can be used as therapeutic agents to treat T-cell-related diseases such as transplantation rejections, autoimmune diseases, and allergy. Three monoclonal antibodies against human T-cells were generated, and the capabilities of these monoclonal antibodies to induce apoptosis of activated human T-cells were examined. Culture supernatants containing monoclonal antibodies secreted by hybridoma cell line m128-9F9, m152-15A7, or m166-43B6 were incubated with either non-activated human T-cells (Day 0) or in vitro activated human T-cells (Day7) for 6 hours. Cells were stained with annexin V after incubation, and subjected to FACS analysis. CD3-positive cells were gated to ensure counting of either in vitro activated human T-cells or resting human T-cells. The apoptotic cells were annexin V staining-positive. […] This capability of inducing apoptosis of activated T-cells yet sparing the resting T-cells is a unique feature of the apoptotic pathway and is a dominating feature of therapeutic reagents targeting T-cell-mediated diseases.

[2] = tested on: non-activated human T-cells; test: Apoptosis of non-activated (resting) human T-cells with monoclonal antibodies (annexin V staining, FACS, CD3-positive gated); format: cell-based; conditions: for Percentage of apoptotic T-cells: Day 0, non-activated human T-cells, hybridoma culture supernatant, 6 hours, annexin V positive among CD3-positive cells; for effect on non-activated human T-cells: result in words
Source text: as §1

Molecule	Percentage of apoptotic T-cells [1]	percentage of in vitro activated T-cells undergoing apoptosis compared to that of untreated cells [1]	induction of death (apoptosis) of in vitro activated human T-cells [1]	Percentage of apoptotic T-cells [2]	effect on non-activated human T-cells [2]
B1	51.66%	about doubled	able to induce T-cell apoptosis in vitro; also recorded: induced death of in vitro activated human T-cells	5.23%	did not affect non-activated human T-cells
B2	49.44%	about doubled	able to induce T-cell apoptosis in vitro; also recorded: induced death of in vitro activated human T-cells	6.57%	did not affect non-activated human T-cells
B3	28.71%	about doubled	able to induce T-cell apoptosis in vitro; also recorded: induced death of in vitro activated human T-cells	5.82%	did not affect non-activated human T-cells
